Experiment [1] deals with T1, mouse TrkB extracellular domain expressed with a C-terminal myc-myc-hexahistidine tag (mouse, UniProt P15209 32-429).
T1 construct: also called mTrkB.mmH; mTRKB.mmH
Kind of experiment: SPR Biacore T200, mAb captured (anti-mFc), 25C. As for the experimental part:
(§1) Equilibrium dissociation constants (KD values) for TrkB binding to purified anti-TrkB monoclonal antibodies were determined using a real-time surface plasmon resonance biosensor using a Biacore T200 instrument. All binding studies were performed in 10 mM Hepes pH 7.4, 150 mM NaCl, 3 mM EDTA, and 0.05% v/v Surfactant Tween-20 (HBS-ET running buffer) at 25° C. The Biacore sensor surface was first derivatized by amine coupling with rabbit anti-mouse Fc polyclonal antibody (GE Healthcare #BR-1008-38) to capture anti-TrkB monoclonal antibodies. Binding studies were performed on the following TrkB reagents; human TrkB extracellular domain expressed with a C-terminal myc-myc-hexahistidine tag (hTrkB.mmH; SEQ ID NO: 76; NP_001018074.1), mouse TrkB extracellular domain expressed with a C-terminal myc-myc-hexahistidine tag (mTRKB.mmH; SEQ ID NO: 79; NP_001020245), and rat TrkB extracellular domain expressed with a C-terminal myc-myc-hexahistidine tag (rTRKB.mmH; SEQ ID NO: 84; XP_002721319.1). […] Kinetic association (kₐ) and dissociation (kd) rate constants were determined by fitting the real-time binding sensorgrams to a 1:1 binding model with mass transport limitation using Scrubber 2.0c curve-fitting software. Binding dissociation equilibrium constants (KD) and dissociative half-lives (t½) were calculated from the kinetic rate constants as: […]

Experiment [2] concerns the target T2, rat TrkB extracellular domain expressed with a C-terminal myc-myc-hexahistidine tag (rat, UniProt Q63604 32-429).
T2 construct: also called rTrkB.mmH; rTRKB.mmH
Kind of experiment: SPR Biacore T200, mAb captured (anti-mFc), 25C. As for the experimental part:
as §1
Background: In SPR one partner is held on a chip, and binding of the other changes the refractive index at the surface.

The target in experiment [3] is T3, human TrkB extracellular domain expressed with a C-terminal myc-myc-hexahistidine tag (human, UniProt Q16620 32-430).
T3 construct: also called hTrkB.mmH; hTRKB.mmH
T3 sequence (Q16620 other isoform, or with tags, fused parts or gaps): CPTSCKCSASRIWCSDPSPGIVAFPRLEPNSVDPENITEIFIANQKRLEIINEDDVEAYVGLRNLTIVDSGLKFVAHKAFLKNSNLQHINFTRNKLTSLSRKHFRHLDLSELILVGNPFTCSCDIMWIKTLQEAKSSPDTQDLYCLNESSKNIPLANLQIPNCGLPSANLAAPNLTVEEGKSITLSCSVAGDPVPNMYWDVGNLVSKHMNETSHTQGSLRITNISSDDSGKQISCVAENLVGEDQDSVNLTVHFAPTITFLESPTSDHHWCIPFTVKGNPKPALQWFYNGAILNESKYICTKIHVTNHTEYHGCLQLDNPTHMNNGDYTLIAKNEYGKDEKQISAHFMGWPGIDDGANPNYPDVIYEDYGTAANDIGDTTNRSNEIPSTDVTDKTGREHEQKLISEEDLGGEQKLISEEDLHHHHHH
Kind of experiment: SPR Biacore T200, mAb captured (anti-mFc), 25C. As for the experimental part: as §1

Experiment [4] has as its target T2, rat TrkB extracellular domain expressed …. Description: blocking ELISA: constant rat TrkB.mmh (REGN1808) pre-mixed with antibody, binding to plate-coated BDNF; half-maximal enhancement of the signal, not blockade. On the procedure:
Experiments were carried out using the following procedure. Human BDNF was coated at a concentration of 0.5 μg/mL (for blocking mouse TrkB.hFc interaction) or 0.3 μg/mL (for blocking rat TrkB.mmh interaction) in PBS on 96-well microtiter plate and incubated overnight at 4° C. […] In a 96-well dilution plate, 850 pM mouse TrkB.hFc or rat TrkB.mmh was mixed with the three-fold serially diluted anti-mouse TrkB antibodies and control antibody. The final antibody concentrations ranged from 1.69 pM to 100 nM. The protein-antibody mix was incubated at room temperature (RT) for 1 hour. The pre-bound mix was then transferred in duplicates to microtiter plates coated with BDNF. […] Plate-bound mouse TrkB.hFc was detected with HRP-conjugated goat anti-human Fcγ fragment specific antibody (Jackson Immunoresearch) and rat TrkB.mmh was detected with HRP-conjugated anti-histidine antibody (Qiagen). […]
The absorbance at 450 nm for each well was recorded and plotted as a function of the concentration of antibody. Data was analyzed in GraphPad Prism software using a four-parameter logistic equation over an 11-point dose response curve and IC₅₀ values were calculated. […] Percent blockade at maximum concentration of the antibody tested was calculated as an indicator of the ability of the antibodies to block the binding of TrkB to BDNF on the plate relative to the baseline of the assay. […]
(ELISA stands for enzyme-linked immunosorbent assay.)

Experiment [5] has the same target. Kind of experiment: SPR, mAb captured (anti-mFc), 25C; 25 C; rTrkB.mmH. On the procedure:
All binding studies were performed in 10 mM Hepes pH 7.4, 150 mM NaCl, 3 mM EDTA, and 0.05% v/v Surfactant Tween-20 (HBS-ET running buffer) at 25° C. and 37° C. […] Binding studies were performed on following TrkB reagents; human TrkB extracellular domain expressed with a C-terminal myc-myc-hexahistidine tag (hTRKB.mmH; SEQ ID NO: 76; Accession number NP_001018074.1), mouse TrkB extracellular domain expressed with a C-terminal myc-myc-hexahistidine tag (mTRKB.mmH; SEQ ID NO: 79; Accession number NP_001020245), rat TrkB extracellular domain expressed with a C-terminal myc-myc-hexahistidine tag (rTRKB.mmH; SEQ ID NO: 84; Accession number NP_036863.1), and human TrkB extracellular domain expressed with a C-terminal mouse IgG2a Fc tag (hTrkB-mFc; SEQ ID NO: 77; Accession number NP_001018074.1). […] Kinetic association (kₐ) and dissociation (kd) rate constants were determined by fitting the real-time binding sensorgrams to a 1:1 binding model with mass transport limitation using Scrubber 2.0c curve-fitting software. Binding dissociation equilibrium constants (KD) and dissociative half-lives (t½) were calculated from the kinetic rate constants as: […]

This note sets out measurements from patent publication US20190161551A1 (Regeneron, published 2019).

T1 sequence (P15209 other isoform, or with tags, fused parts or gaps): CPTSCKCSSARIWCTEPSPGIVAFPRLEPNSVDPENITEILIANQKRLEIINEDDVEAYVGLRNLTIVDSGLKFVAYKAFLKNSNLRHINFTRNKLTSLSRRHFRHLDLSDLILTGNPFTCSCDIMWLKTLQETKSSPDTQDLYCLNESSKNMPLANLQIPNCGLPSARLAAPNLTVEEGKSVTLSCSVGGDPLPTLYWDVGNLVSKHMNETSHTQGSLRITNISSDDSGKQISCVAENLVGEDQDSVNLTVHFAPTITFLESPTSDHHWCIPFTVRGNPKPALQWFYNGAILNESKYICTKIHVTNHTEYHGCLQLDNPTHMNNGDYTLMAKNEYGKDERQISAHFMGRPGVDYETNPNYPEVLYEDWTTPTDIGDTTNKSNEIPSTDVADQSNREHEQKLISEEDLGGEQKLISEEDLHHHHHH
T2 sequence (Q63604 other isoform, or with tags, fused parts or gaps): as the sequence (P15209 other isoform, or with tags, fused parts or gaps) above, with T3M, S9T, A10T, V32I, R63K, S84G, M153T, L185I, S394T counted along it

B1: M2aM14173N (antibody, mouse IgG2a, kappa, V domains shown)
VH: NVSLVESGGGSVKPGGSLQLSCAASGFTFSSSAMSWIRQTPEMRLEWVATISDRGSYTYYPDSVEGRFTISRDNAKNILYLQMSHLMSEDTAMYYCARGKGEKAYYTAFFAYWGQGSLVTVSA
VL: DIQMTQSPASLSASVGETVTITCRASENIYSYLAWYQQKPGKSPHLLVHNAETLAEGVPSRFSGSGSGPQFSLKINSLQPGDSGTYYCQHHYSSPWTFGGGTKLEIKR
notes: Anti-mouse TrkB antibody from hybridoma, mouse IgG2a Fc; also called surrogate anti-mouse TrkB antibody
In the case of B1, in experiment [1], the “90 nM TrkB.mmH Bound (RU)” value amounted to 33 RU; the Kd (in general, the concentration at which binding is half-saturated) was determined as 8.49 nM; the koff (commonly a measure of how fast the partners let go of each other) came to 0.00063 s⁻¹; the kon (commonly a measure of how fast the partners come together) stood at 74100 M⁻¹ s⁻¹. For the same molecule, the t½ (commonly how long it takes for the measured level to halve) in experiment [1] was 18 min. For the same molecule, in experiment [2], the “90 nM rTrkB.mmH Bound (RU)” value turned out to be 33 RU, the Kd came to 8 nM, the koff was determined as 0.000632 s⁻¹ and the kon is 79000 M⁻¹ s⁻¹. The “t½” value in experiment [2] came to 18 min. In addition, in experiment [3], the “90nM hTrkB.mmH Bound (RU)” value stood at 0 RU and the binding result is “no binding (tested: 90 nM)”.

B2: M2aM14179N (antibody, mouse IgG2a, kappa, V domains shown)
VH: EVQLQQSGPELVKPGASVKISCKASGYTLTDYYMNWVKQSHGKSLEWIGDINPNNGGTSYNQKFKGKATLTVDKSSSTAYMELRSLTSEDSAVYYCARGAYYSNYFDYWGQGTTLTVSS
VL: DIVMSQSPSSLAVSAGEKVTMSCKSSQSLLNSRTRKNYLAWYQQKPGQSPKLLIYWASTRESGVPDRFTGSGSGTDFTLTISSVQAEDLAVYYCKQSYILFTFGSGTQLEIKR
notes: as for B1
With B2, the EC50 (read off the curve) (as a rule, the concentration that produces a half-maximal response) in experiment [4] was ~0.4 nM. Besides, in experiment [1], the “90 nM TrkB.mmH Bound (RU)” value was 32 RU, the Kd is 32.4 nM, the koff is 0.00372 s⁻¹ and the kon worked out at 115000 M⁻¹ s⁻¹. Moreover, the “t½” value in experiment [1] was 3.1 min. In experiment [2], the “90 nM rTrkB.mmH Bound (RU)” value is 33 RU, the Kd was 26.9 nM, the koff was determined as 0.00398 s⁻¹ and the association rate constant (kon) turned out to be 148000 M⁻¹ s⁻¹. The “t½” value in experiment [2] was 2.9 min. The “90nM hTrkB.mmH Bound (RU)” value in experiment [3] is -2 RU.

B3: H1M8037C (antibody, mouse IgG1, kappa, V domains shown)
VH: QVQLVQSGAEVKKPGASVKVSCKASGYTFTNYDIIWVRQAPGQGLEWMGYINPYNDGTKYNEKFKGRVTMTRDTSTSTVYMELSSLRSEDTAVYYCARLLKYRRFRYYAIDYWGQGTTVTVSS
VL: DIQMTQSPSSLSASVGDRVTITCRTSENVYSNLAWYQQKPGKAPKLLIYAASNLQSGVPSRFSGSGSGTDYTFTISSLQPEDIATYYCQHFWGSPFTFGQGTKLEIKR
notes: captured by anti-mFc in SPR; also called Comparator; comparator anti-TrkB monoclonal antibody
B3: binding in experiment [5] was put at a Kd of 31.8 nM.
